Measured values reported in patent US20240109957A1 (ANNEXON, published 2024).

How the values were obtained:
human complement C1q [1] = biological target: T1, human complement C1q (Homo sapiens, UniProt P02745 23-245; P02746 28-253; P02747 29-245); test: cell-based or functional assay
human complement C1q [2] = biological target: T1, human complement C1q; test: Not stated; affinity given in descriptive text

T1 sequence (P02745 23-245 limits assumed, chain 1 of 3): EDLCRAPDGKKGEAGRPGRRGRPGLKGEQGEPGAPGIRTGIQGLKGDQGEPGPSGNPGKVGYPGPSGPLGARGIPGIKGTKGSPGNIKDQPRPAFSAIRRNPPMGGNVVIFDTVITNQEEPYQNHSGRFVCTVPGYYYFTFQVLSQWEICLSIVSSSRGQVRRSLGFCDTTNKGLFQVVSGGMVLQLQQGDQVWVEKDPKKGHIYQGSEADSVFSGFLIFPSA
T1 sequence (P02746 28-253 limits assumed, chain 2 of 3): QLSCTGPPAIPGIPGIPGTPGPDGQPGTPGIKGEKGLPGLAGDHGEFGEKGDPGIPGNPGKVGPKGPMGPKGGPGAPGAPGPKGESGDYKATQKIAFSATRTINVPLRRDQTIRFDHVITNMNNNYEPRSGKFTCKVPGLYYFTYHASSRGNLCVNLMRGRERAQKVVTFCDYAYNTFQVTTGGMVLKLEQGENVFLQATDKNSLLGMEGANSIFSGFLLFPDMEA
T1 sequence (P02747 29-245 limits assumed, chain 3 of 3): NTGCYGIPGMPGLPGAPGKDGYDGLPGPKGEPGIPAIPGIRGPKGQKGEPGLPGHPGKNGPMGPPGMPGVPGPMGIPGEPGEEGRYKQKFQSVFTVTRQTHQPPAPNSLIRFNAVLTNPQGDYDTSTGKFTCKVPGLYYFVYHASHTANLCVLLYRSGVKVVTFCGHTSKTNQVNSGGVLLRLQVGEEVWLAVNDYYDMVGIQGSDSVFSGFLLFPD

IC50 for inhibition of complement deposition (C4 and C3d on human RBCs, flow cytometry) (human complement C1q [1]): ~10 nM | Kd (human complement C1q [2]): 0.01 nM
B1: FabA (anti-C1q antibody Fab fragment) (Fab)
heavy: QVQLVQSGAELKKPGASVKVSCKSSGYHFTSYWMHWVKQAPGQGLEWIGVIHPNSGSINYNEKFESRVTITVDKSTSTAYMELSSLRSEDTAVYYCAGERDSTEVLPMDYWGQGTTVTVSSASTKGPSVFPLAPSSKSTSGGTAALGCLVKDYFPEPVTVSWNSGALTSGVHTFPAVLQSSGLYSLSSVVTVPSSSLGTQTYICNVNHKPSNTKVDKKVEPKSCDKTHT
light: DVQITQSPSSLSASLGERATINCRASKSINKYLAWYQQKPGKAPKLLIYSGSTLQSGIPARFSGSGSGTDFTLTISSLEPEDFAMYYCQQHNEYPLTFGQGTKLEIKRTVAAPSVFIFPPSDEQLKSGTASVVCLLNNFYPREAKVQWKVDNALQSGNSQESVTEQDSKDSTYSLSSTLTLSKADYEKHKVYACEVTHQGLSSPVTKSFNRGEC
notes: Heavy chain Fab fragment truncated after the first constant domain of IgG1; also called anti-C1q Fab; anti-C1q monovalent Fab
IC50 for inhibition of hemolysis (CAD-sensitised human RBCs, normal human serum, absorbance at 415 nM) (human complement C1q [1]): ~10 nM
